Measured values as given in patent publication US12510548B2, “Method of determining toxicity of an immunomodulatory drug for use in humans” (The Jackson Laboratory, priority 2017, dated 2025).
Where two headings read alike, the source gives them in different places.

Experiments:
NK cells = details: cited from earlier work
hPBMC humanized NSG mice [1] = assay: Human cytokine release in sera of hPBMC humanized NSG mice after drug injection (BD CBA Th1/Th2 II kit); details: mouse, in vivo
Experimental: PBMCs of nine […] different donors were used to produce humanized NSG mice for these experiments. On day 6 of hPBMC engraftment (2×10^7 PBMCs/mouse), the mice were induced for human cytokine release by i.v. injection with antibodies OKT3 (anti-CD3 mAb; BioLegend, Cat. No. 317302) or ANC28.1/5D10 (also referred to as “ANC28”, “anti-CD28 mAb,” or “anti-CD28”; Ancell, Cat. No. 177-824). PBS buffer served as a negative control. The mice were bled at 2 and 6 hours, sera were collected and analyzed for cytokine concentrations using BD Cytometric Bead Array (CBA) Human Th1/Th2 Cytokine kit II (BD, Cat. No. 551809) (See, FIGS. 5A-5F).
FIGS. 5A-5F depict multiple graphs of concentration of different cytokines (i.e., IFN-γ, IL-6, IL-2, IL-10, IL-4, and TNF, respectively) measured at 2 and 6 hours after injection of antibodies OKT3 (anti-CD3 mAb) and ANC28 (anti-CD28) into sets of humanized mice for nine (9) different donors. Mice were i.v. injected with 0.5 mg/kg OKT3 or 1 mg/kg anti-CD28, and 5 ml/kg PBS (a negative control). Mice were bled at 2 and 6 hours and circulating cytokine concentrations were measured by BD CBA Th1/Th2 II kit.
To do so, a high number of PBMCs (i.e., 5×10^7/mouse) was engrafted into the humanized NSG mice. On day 6, the mice received the drug and a cytokine release profile was determined. Here, the IFN-γ and Il-10 levels were evaluated as in the above-mentioned experiments using 2×10^7 PBMCs/mouse.
On day 6 after engraftment, the mice received the immunotherapeutic drug (mAb) and a cytokine release profile was determined in these three groups of mice. Mice were bled at 2 and 6 hours and circulating cytokine concentrations were measured by BD CBA Th1/Th2 II kit. FIGS. 10A-F depict the cytokine levels after drug injection in donor 309 humanized NSG mice engrafted with 2×10^7, 3×10^7, or 4×10^7PBMCs/mouse. FIG. 10A depicts the INFγ level for each group of mice. FIG. 10B depicts the IL-10 level for each group of mice. FIG. 10C depicts the IL-6 level for each group of mice. FIG. 10D depicts the IL-2 level for each group of mice. FIG. 10E depicts the IL-4 level for each group of mice. FIG. 10F depicts the TNF level for each group of mice.
In this study, the inventors examined different concentrations of […]® (pembrolizumab) to determine if there is dosage dependence in the CRS in humanized mice. 6-week old female NOD.Cg-Prkdc^scid Il2rg^tm1Wjl/SzJ (NSG, JAX stock number 005557) mice were irradiated with 100cGy X-ray at least 4 hours prior to human PBMCs engraftment. The PBMCs in these experiments were from donor 358. Purified/isolated human PBMCs were intravenously injected into the mice at 3×10^7 cells/mouse. Six days after PBMC engraftment, mice were iv injected with PBS (negative control), 0.5 mg/kg OKT3 (positive control), 2.5 mg/kg, 5 mg/kg, or 10 mg/kg […]®. There were 5 mice per group. These […]® dosages are in the range of dosages studied in clinical trials discussed on the U.S. prescribing information for […]®. Few adverse effect reports of severe cytokine release syndrome after […]® administration have been documented. Mice were bled at 2 and 6 hours and circulating cytokine concentrations were measured using a BD CBA Th1/Th2 II kit. As shown in FIGS. 12A-F, the level measured after injection of the positive control OKT3 was very high for each of IFN-γ, IL-10, IL-6, IL-2, IL-4, and TNF. […]

non-humanized mice = assay: Administration of antibodies to non-humanized mice, cytokine responses; details: mouse, in vivo
human PBMCs = assay: In vitro PBMC assay of cytokine release (drug-coated plate); format: cell-based; details: donor 213; anti-CD28 10 μg/well, OKT3 1 mg/ml; supernatant day 2
Experimental: Day −1: Coated the plate with drugs: dilute drug (e.g., an antibody) in PBS; leave plate open under hood.
Day 0: Process PBMCs from each donor. PBMCs were from donor 213, 309, 345, or 366. Thaw PBMCs in supplemented RPMI and wash once. Count cells and re-suspend in supplemented RPMI at 1×10^6 cells/ml. Wash coated wells twice with 200 μl PBS and then once with 200 μL supplemented RPMI. Plate 100 μl of cells in each well (for a total of 1×10^5 cells per well).
Day 2: Harvest supernatant from each well and measure the cytokine level using a BD CBA Th1/Th2 II kit.
The two methods for determining cytokine release levels after a drug treatment were compared for treatment of PBMCs from four different donors with an anti-CD28 antibody (Ancell, Cat. No. 177-824). For the in vitro assay, anti-CD28 was dosed at 10 μg/well in the 96 well plates. For the in vivo method, anti-CD28 was dosed at 1 mg/kg. Supernatants of the in vitro PBMC culture wells and serum from the mice were collected and cytokine levels were measured. Antibody OKT3 (0.5 mg/kg for the in vivo assay or 1 mg/ml for the in vitro assay) was used as a positive control and either PBS or isotype antibodies were used as negative controls in the in vivo assay or the in vitro assay, respectively. The cytokine levels determined are presented in FIGS. 14A (IFN-γ and IL-10) and 14B (IL-6 and IL-4) as mean values±standard error of the mean (SEM).

hPBMC humanized NSG mice [2] = details: mouse, in vivo
Description: The clinical score in the mice was monitored by performing the signs and the grading of scores as follow: Score: 0=normal activity; 1=normal activity, piloerection, tiptoe gait; 2=hunched, reduced activity but still mobile; 3=hypomotile but mobile when prompted; 4=moribund (point of death). Mice with a clinical score of 4 were euthanized.
As in a reference by Brady et al., Clinical & Translational Immunology, 2014, the inventors performed the signs and the grading of scores as follow: Score: 0=normal activity; 1=normal activity, piloerection, tiptoe gait; 2=hunched, reduced activity but still mobile; 3=hypomotile but mobile when prompted; 4=moribund (point of death). Mice with a clinical score of 4 were euthanized.

hPBMC humanized NSG mice [3] = details: mouse, in vivo; remark: listed apart in the source
Experimental: Rectal temperature of the mice of Examples 5 and 6 was measured before treatment and again immediately before each time-point bleed. […] Rectal temperature was measured in hPMBCs humanized mice of 10 donors injected with control PBS, OKT3, and anti-CD28. The number of mice for each group was 2-5 and data are presented as mean±SEM.
Rectal temperature of the mice was measured before treatment and again immediately before each time-point bleed. Temperature was measured by the insertion of a rectal thermocouple probe and waiting until a stable reading was obtained.

| Substance | cytokine release in vivo (NK cells) | cytokine levels in non-irradiated mice compared to irradiated mice (hPBMC humanized NSG mice [1]) | major inflammatory cytokines in treated humanized mice (hPBMC humanized NSG mice [1]) | level of each of IFN-γ, IL-10, IL-6, IL-2, IL-4, and TNF (hPBMC humanized NSG mice [1]; iv, 0.5 mg/kg) | cytokine responses in non-humanized mice (non-humanized mice) | IFN-γ, IL-10, IL-6, and IL-4 levels versus control isotype antibody, in vitro (human PBMCs) | clinical score (hPBMC humanized NSG mice [2]) | body temperature (rectal) (hPBMC humanized NSG mice [3]) | cytokine levels (hPBMC humanized NSG mice [1]; iv, 2.5 mg/kg) | clinical score (hPBMC humanized NSG mice [2]; 5 mg/kg) | clinical score (hPBMC humanized NSG mice [2]; 10 mg/kg) |
| --- | --- | --- | --- | --- | --- | --- | --- | --- | --- | --- | --- |
| alemtuzumab [CAMPATH 1-H] | high levels of TNF, IFN-γ and IL-6 |  |  |  |  |  |  |  |  |  |  |
| muromonab-CD3 [OKT3] |  | consistently lower | significant increase in major inflammatory cytokines | very high | did not induce the cytokine responses | much higher than levels determined after dosing with the control isotype antibody | 1 | below 36 °C |  |  |  |
| pembrolizumab |  | consistently lower |  |  |  |  |  |  | within the error range of the level measured for the PBS control group | the same as positive control | the same as positive control |
